Patent US20230250154A1 (CYTONICS, published 2023)
Each block holds one binder with its values, some of them ahead of it.

What was measured:
Assay in all cases: cell-based or functional assay
[1] = molecular target: T1, MMP7 (UniProt P09237 95-267, limits assumed)
T1 sequence (looked up): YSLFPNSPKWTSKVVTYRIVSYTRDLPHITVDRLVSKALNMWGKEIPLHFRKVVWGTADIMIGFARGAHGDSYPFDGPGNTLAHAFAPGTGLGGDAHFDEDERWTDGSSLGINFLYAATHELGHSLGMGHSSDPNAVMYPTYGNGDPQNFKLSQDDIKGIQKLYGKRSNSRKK

[2] = molecular target: MMP13 (human, UniProt P45452 104-471, limits assumed)
[3] = molecular target: MMP3 (human, UniProt P08254 100-477, limits assumed)
Chain of MMP3 (P08254 100-477 limits assumed): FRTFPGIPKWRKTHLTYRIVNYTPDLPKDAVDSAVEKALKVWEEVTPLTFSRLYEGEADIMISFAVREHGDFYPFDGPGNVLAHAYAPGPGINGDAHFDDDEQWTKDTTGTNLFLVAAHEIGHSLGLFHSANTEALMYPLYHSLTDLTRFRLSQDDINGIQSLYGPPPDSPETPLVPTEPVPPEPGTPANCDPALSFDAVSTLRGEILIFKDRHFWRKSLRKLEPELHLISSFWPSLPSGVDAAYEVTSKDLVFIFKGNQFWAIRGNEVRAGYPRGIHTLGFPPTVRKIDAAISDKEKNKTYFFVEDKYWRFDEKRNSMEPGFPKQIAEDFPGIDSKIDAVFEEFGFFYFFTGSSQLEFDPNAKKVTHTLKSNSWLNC

[4] = molecular target: T2, Cathepsin G (UniProt P08311 21-244)
T2 sequence (looked up): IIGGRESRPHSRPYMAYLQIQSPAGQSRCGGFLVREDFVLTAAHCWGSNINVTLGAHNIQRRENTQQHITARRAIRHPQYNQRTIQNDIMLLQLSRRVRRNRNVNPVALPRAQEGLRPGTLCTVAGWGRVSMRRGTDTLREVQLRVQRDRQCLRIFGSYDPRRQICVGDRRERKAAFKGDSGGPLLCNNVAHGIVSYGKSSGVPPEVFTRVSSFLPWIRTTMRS

[5] = molecular target: T3, MMP1 (human, UniProt P03956 100-469, limits assumed)
T3 sequence (looked up): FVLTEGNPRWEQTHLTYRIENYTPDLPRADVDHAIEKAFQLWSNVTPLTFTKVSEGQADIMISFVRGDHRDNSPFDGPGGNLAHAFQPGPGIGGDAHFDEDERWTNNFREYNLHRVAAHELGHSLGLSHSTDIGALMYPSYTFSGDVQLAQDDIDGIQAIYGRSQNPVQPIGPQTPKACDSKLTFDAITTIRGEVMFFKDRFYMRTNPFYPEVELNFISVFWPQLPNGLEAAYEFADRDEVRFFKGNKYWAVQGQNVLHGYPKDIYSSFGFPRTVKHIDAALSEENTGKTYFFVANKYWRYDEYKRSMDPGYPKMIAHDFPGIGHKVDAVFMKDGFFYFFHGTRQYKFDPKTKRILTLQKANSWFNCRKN

[6] = molecular target: MMP8 (human, UniProt P22894 101-467, limits assumed)
Chain of MMP8 (P22894 101-467 limits assumed): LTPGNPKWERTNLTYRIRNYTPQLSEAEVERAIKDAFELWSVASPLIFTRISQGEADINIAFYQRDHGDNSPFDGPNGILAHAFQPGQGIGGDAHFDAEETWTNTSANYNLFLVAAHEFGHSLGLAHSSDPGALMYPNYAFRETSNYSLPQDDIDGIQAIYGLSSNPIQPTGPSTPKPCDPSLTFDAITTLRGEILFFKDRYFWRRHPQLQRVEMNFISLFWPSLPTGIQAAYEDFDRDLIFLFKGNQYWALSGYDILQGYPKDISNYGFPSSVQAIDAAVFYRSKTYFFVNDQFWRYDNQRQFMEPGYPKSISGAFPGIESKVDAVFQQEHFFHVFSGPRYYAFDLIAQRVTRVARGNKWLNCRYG

[7] = molecular target: T4, MMP2 (human, UniProt P08253 110-660, limits assumed)
T4 sequence (looked up): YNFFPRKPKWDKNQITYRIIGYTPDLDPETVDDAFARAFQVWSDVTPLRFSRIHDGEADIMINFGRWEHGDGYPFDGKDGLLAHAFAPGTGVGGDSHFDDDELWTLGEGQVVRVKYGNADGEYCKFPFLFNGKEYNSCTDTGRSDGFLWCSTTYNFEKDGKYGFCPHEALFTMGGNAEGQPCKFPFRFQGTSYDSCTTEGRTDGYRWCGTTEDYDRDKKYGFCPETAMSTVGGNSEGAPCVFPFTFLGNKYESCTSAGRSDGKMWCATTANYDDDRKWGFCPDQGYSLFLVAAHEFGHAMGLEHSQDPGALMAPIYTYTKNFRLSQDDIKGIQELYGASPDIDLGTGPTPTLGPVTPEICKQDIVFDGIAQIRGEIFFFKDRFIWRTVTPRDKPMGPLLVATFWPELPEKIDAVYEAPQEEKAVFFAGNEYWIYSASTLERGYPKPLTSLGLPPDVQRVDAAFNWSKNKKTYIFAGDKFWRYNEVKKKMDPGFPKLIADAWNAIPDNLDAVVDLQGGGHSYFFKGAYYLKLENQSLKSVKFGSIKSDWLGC

[8] = molecular target: T5, ADAMTS4 (human, UniProt O75173 213-685, limits assumed)
T5 sequence (looked up): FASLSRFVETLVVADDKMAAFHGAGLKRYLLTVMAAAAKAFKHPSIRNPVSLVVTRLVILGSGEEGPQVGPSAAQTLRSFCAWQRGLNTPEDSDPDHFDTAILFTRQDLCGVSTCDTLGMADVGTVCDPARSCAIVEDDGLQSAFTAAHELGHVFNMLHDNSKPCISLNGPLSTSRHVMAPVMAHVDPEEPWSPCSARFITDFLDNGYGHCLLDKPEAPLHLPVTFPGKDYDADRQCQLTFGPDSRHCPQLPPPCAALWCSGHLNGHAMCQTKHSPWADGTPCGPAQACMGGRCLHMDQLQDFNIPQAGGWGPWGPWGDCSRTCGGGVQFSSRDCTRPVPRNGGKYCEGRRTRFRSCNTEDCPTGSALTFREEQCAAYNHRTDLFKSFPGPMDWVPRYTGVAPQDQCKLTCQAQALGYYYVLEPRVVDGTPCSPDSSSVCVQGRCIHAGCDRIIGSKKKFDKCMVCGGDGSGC

[9] = molecular target: Elastase
[10] = molecular target: MMP9 (human, UniProt P14780 107-707, limits assumed)
Chain of MMP9 (P14780 107-707 limits assumed): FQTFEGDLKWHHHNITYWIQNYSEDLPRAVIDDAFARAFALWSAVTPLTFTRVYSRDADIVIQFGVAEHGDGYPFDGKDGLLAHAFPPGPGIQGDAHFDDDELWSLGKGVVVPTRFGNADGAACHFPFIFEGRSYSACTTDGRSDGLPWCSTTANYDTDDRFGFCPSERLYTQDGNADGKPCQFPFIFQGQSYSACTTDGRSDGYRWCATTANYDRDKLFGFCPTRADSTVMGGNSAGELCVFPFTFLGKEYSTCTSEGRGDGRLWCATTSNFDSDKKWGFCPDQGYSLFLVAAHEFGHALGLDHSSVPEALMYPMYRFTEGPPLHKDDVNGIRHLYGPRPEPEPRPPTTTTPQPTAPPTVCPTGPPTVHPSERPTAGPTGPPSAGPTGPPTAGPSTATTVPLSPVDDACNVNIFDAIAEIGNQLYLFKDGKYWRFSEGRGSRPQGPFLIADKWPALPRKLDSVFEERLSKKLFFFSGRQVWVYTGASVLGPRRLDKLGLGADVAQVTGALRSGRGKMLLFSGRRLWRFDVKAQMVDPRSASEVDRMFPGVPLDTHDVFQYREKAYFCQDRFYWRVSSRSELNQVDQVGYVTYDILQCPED

[11] = molecular target: T6, ADAMTS5 (human, UniProt Q9UNA0 262-622, limits assumed)
T6 sequence (looked up): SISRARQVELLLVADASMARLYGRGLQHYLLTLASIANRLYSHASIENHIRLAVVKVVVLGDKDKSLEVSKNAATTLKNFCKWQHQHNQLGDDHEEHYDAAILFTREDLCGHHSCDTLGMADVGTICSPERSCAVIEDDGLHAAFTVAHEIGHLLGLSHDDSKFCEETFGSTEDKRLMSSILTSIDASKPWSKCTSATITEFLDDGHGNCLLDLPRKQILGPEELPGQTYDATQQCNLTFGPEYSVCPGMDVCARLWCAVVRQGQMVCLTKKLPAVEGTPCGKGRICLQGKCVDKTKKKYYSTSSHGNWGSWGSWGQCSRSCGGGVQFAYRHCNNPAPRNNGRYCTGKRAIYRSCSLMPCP

Protease Inhibition (% of WT) [1]: 75 % of WT
Protease Inhibition (% of WT) [2]: 93 % of WT
Protease Inhibition (% of WT) [3]: 265 % of WT
Protease Inhibition (% of WT) [4]: 78 % of WT
Protease Inhibition (% of WT) [5]: 68 % of WT
Protease Inhibition (% of WT) [6]: 54 % of WT
Protease Inhibition (% of WT) [7]: 42 % of WT
Protease Inhibition (% of WT) [8]: 104 % of WT
Protease Inhibition (% of WT) [9]: 92 % of WT
Protease Inhibition (% of WT) [10]: 30 % of WT
Protease Inhibition (% of WT) [11]: 316 % of WT
B1: Variant A2M, bait region SEQ ID NO 22 (other)
chain: SVSGKPQYMVLVPSLLHTETTEKGCVLLSYLNETVTVSASLESVRGNRSLFTDLEAENDVLHCVAFAVPKSSSNEEVMFLTVQVKGPTQEFKKRTTVMVKNEDSLVFVQTDKSIYKPGQTVKFRVVSMDENFHPLNELIPLVYIQDPKGNRIAQWQSFQLEGGLKQFSFPLSSEPFQGSYKVVVQKKSGGRTEHPFTVEEFVLPKFEVQVTVPKIITILEEEMNVSVCGLYTYGKPVPGHVTVSICRKYSDASDCHGEDSQAFCEKFSGQLNSHGCFYQQVKTKVFQLKRKEYEMKLHTEAQIQEEGTVVELTGRQSSEITRTITKLSFVKVDSHFRQGIPFFGQVRLVDGKGVPIPNKVIFIRGNEANYYSNATTDEHGLVQFSINTTNVMGTSLTVRVNYKDRSPCYGYQWVSEEHEEAHHTAYLVFSPSKSFVHLEPMSHELPCGHTQTVQAHYILNGGTLLGLKKLSFYYLIMAKGGIVRTGTHGLLVKQEDMKGHFSISIPVKSDIAPVARLLIYAVLPTGDVIGDSAKYDVENCLANKVDLSFSPSQSLPASHAHLRVTAAPQSVCALRAVDQSVLLMKPDAELSASSVYNLLPEKDLTGFPGPLNDQDDEDCINRHNVYINGITYTPVSSTNEKDMYSFLEDMGLKAFTNSKIRKPKMCPQLEHGPEGEGEGEFRGVTIPENFFGVPRYLTASEDLVVQISELEGRGSPHTKLRKYFPETWIWDLVVVNSAGVAEVGVTVPDTITEWKAGAFCLSEDAGLGISSTASLRAFQPFFVELTMPYSVIRGEAFTLKATVLNYLPKCIRVSVQLEASPAFLAVPVEKEQAPHCICANGRQTVSWAVTPKSLGNVNFTVSAEALESQELCGTEVPSVPEHGRKDTVIKPLLVEPEGLEKETTFNSLLCPSGGEVSEELSLKLPPNVVEESARASVSVLGDILGSAMQNTQNLLQMPYGCGEQNMVLFAPNIYVLDYLNETQQLTPEIKSKAIGYLNTGYQRQLNYKHYDGSYSTFGERYGRNQGNTWLTAFVLKTFAQARAYIFIDEAHITQALIWLSQRQKDNGCFRSSGSLLNNAIKGGVEDEVTLSAYITIALLEIPLTVTHPVVRNALFCLESAWKTAQEGDHGSHVYTKALLAYAFALAGNQDKRKEVLKSLNEEAVKKDNSVHWERPQKPKAPVGHFYEPQAPSAEVEMTSYVLLAYLTAQPAPTSEDLTSATNIVKWITKQQNAQGGFSSTQDTVVALHALSKYGAATFTRTGKAAQVTIQSSGTFSSKFQVDNNNRLLLQQVSLPELPGEYSMKVTGEGCVYLQTSLKYNILPEKEEFPFALGVQTLPQTCDEPKAHTSFQISLSVSYTGSRSASNMAIVDVKMVSGFIPLKPTVKMLERSNHVSRTEVSSNHVLIYLDKVSNQTLSLFFTVLQDVPVRDLKPAIVKVYDYYETDEFAIAEYNAPCSKDLGNADYKDDDDKGASHHHHHH

Protease Inhibition (% of WT) [1]: 191 % of WT
Protease Inhibition (% of WT) [2]: 133 % of WT
Protease Inhibition (% of WT) [3]: 111 % of WT
Protease Inhibition (% of WT) [4]: 145 % of WT
Protease Inhibition (% of WT) [5]: 133 % of WT
Protease Inhibition (% of WT) [6]: 132 % of WT
Protease Inhibition (% of WT) [7]: 80 % of WT
Protease Inhibition (% of WT) [8]: 176 % of WT
Protease Inhibition (% of WT) [9]: 147 % of WT
Protease Inhibition (% of WT) [10]: 71 % of WT
Protease Inhibition (% of WT) [11]: 200 % of WT
B2: Variant A2M, bait region SEQ ID NO 23 (other)
chain: SVSGKPQYMVLVPSLLHTETTEKGCVLLSYLNETVTVSASLESVRGNRSLFTDLEAENDVLHCVAFAVPKSSSNEEVMFLTVQVKGPTQEFKKRTTVMVKNEDSLVFVQTDKSIYKPGQTVKFRVVSMDENFHPLNELIPLVYIQDPKGNRIAQWQSFQLEGGLKQFSFPLSSEPFQGSYKVVVQKKSGGRTEHPFTVEEFVLPKFEVQVTVPKIITILEEEMNVSVCGLYTYGKPVPGHVTVSICRKYSDASDCHGEDSQAFCEKFSGQLNSHGCFYQQVKTKVFQLKRKEYEMKLHTEAQIQEEGTVVELTGRQSSEITRTITKLSFVKVDSHFRQGIPFFGQVRLVDGKGVPIPNKVIFIRGNEANYYSNATTDEHGLVQFSINTTNVMGTSLTVRVNYKDRSPCYGYQWVSEEHEEAHHTAYLVFSPSKSFVHLEPMSHELPCGHTQTVQAHYILNGGTLLGLKKLSFYYLIMAKGGIVRTGTHGLLVKQEDMKGHFSISIPVKSDIAPVARLLIYAVLPTGDVIGDSAKYDVENCLANKVDLSFSPSQSLPASHAHLRVTAAPQSVCALRAVDQSVLLMKPDAELSASSVYNLLPEKDLTGFPGPLNDQDDEDCINRHNVYINGITYTPVSSTNEKDMYSFLEDMGLKAFTNSKIRKPKMCPQLEHGPIPENFYGVEGEGLGIGSEDLVVQISELEGRGSVEEPHTKLRKYFPETWIWDLVVVNSAGVAEVGVTVPDTITEWKAGAFCLSEDAGLGISSTASLRAFQPFFVELTMPYSVIRGEAFTLKATVLNYLPKCIRVSVQLEASPAFLAVPVEKEQAPHCICANGRQTVSWAVTPKSLGNVNFTVSAEALESQELCGTEVPSVPEHGRKDTVIKPLLVEPEGLEKETTFNSLLCPSGGEVSEELSLKLPPNVVEESARASVSVLGDILGSAMQNTQNLLQMPYGCGEQNMVLFAPNIYVLDYLNETQQLTPEIKSKAIGYLNTGYQRQLNYKHYDGSYSTFGERYGRNQGNTWLTAFVLKTFAQARAYIFIDEAHITQALIWLSQRQKDNGCFRSSGSLLNNAIKGGVEDEVTLSAYITIALLEIPLTVTHPVVRNALFCLESAWKTAQEGDHGSHVYTKALLAYAFALAGNQDKRKEVLKSLNEEAVKKDNSVHWERPQKPKAPVGHFYEPQAPSAEVEMTSYVLLAYLTAQPAPTSEDLTSATNIVKWITKQQNAQGGFSSTQDTVVALHALSKYGAATFTRTGKAAQVTIQSSGTFSSKFQVDNNNRLLLQQVSLPELPGEYSMKVTGEGCVYLQTSLKYNILPEKEEFPFALGVQTLPQTCDEPKAHTSFQISLSVSYTGSRSASNMAIVDVKMVSGFIPLKPTVKMLERSNHVSRTEVSSNHVLIYLDKVSNQTLSLFFTVLQDVPVRDLKPAIVKVYDYYETDEFAIAEYNAPCSKDLGNADYKDDDDKGASHHHHHH
